A412 (DTNB titration of free SH groups formed in insulin), complete reaction: NADPH + Trx + TrxB + insulin, A412 (DTNB titration of free SH groups formed in insulin), control with NADPH omitted: Trx + TrxB + insulin and A412 (DTNB titration of free SH groups formed in insulin), control with Trx omitted: NADPH + TrxB + insulin data for one substance are collected here from US20040161809.

The target of this series is Staphylococcus aureus thioredoxin (Trx) (UniProt P0A0K6).
Staphylococcus aureus thioredoxin (Trx), sequence (P0A0K6 whole entry): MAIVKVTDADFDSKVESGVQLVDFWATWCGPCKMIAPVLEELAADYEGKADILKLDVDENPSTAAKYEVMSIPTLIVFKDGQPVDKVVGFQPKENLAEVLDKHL

For the substance “Staphylococcus aureus thioredoxin reductase (TrxB)”, the A412 (DTNB titration of free SH groups formed in insulin), complete reaction: NADPH + Trx + TrxB + insulin was 0.816 A412; the A412 (DTNB titration of free SH groups formed in insulin), control with NADPH omitted: Trx + TrxB + insulin came to 0.15 A412; the A412 (DTNB titration of free SH groups formed in insulin), control with Trx omitted: NADPH + TrxB + insulin turned out to be 0.493 A412.
